One substance from US20240132578A1 can be followed below.

What all share (assay): cell-based or functional assay
Test [1] addresses HIV-1 Env of isolate MG RM-A-012 (pseudovirus) (HIV-1).
Test [2] addresses HIV-1 envelope glycoprotein (Env) of isolate MG RM-AG-008 (HIV-1).
The target of test [3] is HIV-1 Env of pseudovirus MGRM-D-011 (HIV-1).
For test [4], the target named is HIV-1 Env of isolate MGRM-C-020 (subtype C), on pseudovirus (HIV-1).
The target of test [5] is HIV-1 Env of pseudovirus MGRM-D-029 (HIV-1).
The target in test [6] is HIV-1 Env of pseudovirus MGRM-D-026 (HIV-1).
The target in test [7] is HIV-1 Env of isolate MG RM-A-011 (pseudovirus) (HIV-1).
Test [8] deals with HIV-1 Env of pseudovirus isolate MGRM-Chronic-B-008 (clade B) (HIV-1).
In test [9] the target is HIV-1 Env of pseudovirus MGRM-D-014 (HIV-1).
In test [10] the target is HIV-1 Env of isolate VLGCA1 (pseudovirus) (HIV-1).
Test [11] has as its target HIV-1 Env of pseudovirus MGRM-F1-021 (HIV-1).
In test [12] the target is HIV-1 envelope glycoprotein (Env) of isolate MG RM-AG-011 (HIV-1).
Test [13] concerns the target HIV-1 envelope glycoprotein (Env) of isolate MGRM-AE-007 (HIV-1).
Test [14] concerns the target HIV-1 Env of pseudovirus MGRM-D-013 (HIV-1).

By IC50 is commonly meant the concentration at which inhibition is half-maximal. High values mean weaker potency, low ones greater potency.

Regarding VRC01 (antibody), the figures for the IC50 (µg/mL), single-round pseudovirus neutralization in [1], in test [7] and in [10] were above 50 µg/mL, 0.273 µg/mL and 0.163 µg/mL, respectively. Moreover, the IC50 in test [2] turned out to be 0.124 µg/mL; in test [12], 0.084 µg/mL; in [13], 0.835 µg/mL. Further, the IC50, pseudovirus neutralization in [3] is 0.075 µg/mL; in test [5], 3.22 µg/mL; in test [6], 0.435 µg/mL; in test [8] it was 0.155 µg/mL; in test [9], 0.332 µg/mL; in test [11], 0.039 µg/mL. For the same substance, the IC50, pseudovirus neutralization in test [14] is 0.087 µg/mL. Also, the IC50, single-round pseudovirus neutralization in [4] came to 0.396 µg/mL.
